Measured values as given in the Human Domainome abundance scans (Beltran et al. 2025).
± gives the uncertainty stated by the source.

B1: Far upstream element-binding protein 1, residues 98 to 169; numbered along this chain, Q96AE4 (parent)
chain: RSVMTEEYKVPDGMVGFIIGRGGEQISRIQQESGCKIQIAPDSGGLPERSCMLTGTPESVQSAKRLLDQIVE

Variants of: B1
Assay: abundance fitness (aPCA) (normalised: wild type 0, dead -1); higher = more abundant; growth selection in yeast, the domain comes from the species named
Settings: Homo sapiens

Abundance fitness of substitutions, site by site:
S59: T -0.058 ± 0.033; M -0.089 ± 0.034; E 0.012 ± 0.03; F -0.428 ± 0.047; Y -0.376 ± 0.05; K -0.046 ± 0.033; Q -0.017 ± 0.034; L -0.401 ± 0.029; H -0.063 ± 0.038; I -0.252 ± 0.051; V -0.116 ± 0.028; C -0.071 ± 0.037; G -0.046 ± 0.023; D -0.053 ± 0.036; R -0.064 ± 0.024; W -0.754 ± 0.042; P -0.555 ± 0.037
C51: P -0.597 ± 0.042; W -0.108 ± 0.03; R -0.984 ± 0.037; L -0.019 ± 0.03; D -0.956 ± 0.082; G -0.417 ± 0.024; A -0.06 ± 0.028; V 0.006 ± 0.027; F 0.049 ± 0.053; E -1 ± 0.059; Y -0.116 ± 0.046; H -0.718 ± 0.091; K -1.12 ± 0.087; Q -0.818 ± 0.068; S -0.284 ± 0.029; T -0.093 ± 0.033; M 0.017 ± 0.036
Q69: G -0.002 ± 0.023; W -0.274 ± 0.029; S -0.018 ± 0.026; H -0.041 ± 0.047; I -0.054 ± 0.036; N -0.02 ± 0.038; R -0.009 ± 0.022; P -0.097 ± 0.034; C -0.079 ± 0.033; L -0.065 ± 0.024; T -0.029 ± 0.03; V -0.014 ± 0.026; A -0.006 ± 0.026; K -0.004 ± 0.033; F -0.097 ± 0.036; E 0.023 ± 0.03; Y -0.162 ± 0.039
L53: N -1.05 ± 0.11; I 0.048 ± 0.053; P -1.03 ± 0.093; G -1.1 ± 0.041; T -0.923 ± 0.063; D -1 ± 0.092; W -1.03 ± 0.054; V -0.132 ± 0.028; A -0.719 ± 0.039; H -0.99 ± 0.13; R -1.05 ± 0.043; F -0.349 ± 0.05; S -0.899 ± 0.047; M -0.095 ± 0.035; Q -1.1 ± 0.091; K -0.835 ± 0.063; Y -1.67 ± 0.26
K64: S -0.126 ± 0.026; N -0.274 ± 0.043; I -0.097 ± 0.04; V -0.09 ± 0.026; P -0.781 ± 0.041; E -0.15 ± 0.03; R -0.015 ± 0.023; C -0.137 ± 0.038; F -0.254 ± 0.043; G -0.179 ± 0.025; A -0.078 ± 0.027; T -0.065 ± 0.03; H -0.136 ± 0.041; W -0.252 ± 0.03; D -0.634 ± 0.047; L -0.231 ± 0.026; Q -0.104 ± 0.033
T56: Q -0.042 ± 0.041; S -0.006 ± 0.027; K -0.027 ± 0.036; D -0.067 ± 0.037; V -0.04 ± 0.026; A -0.046 ± 0.029; W -0.154 ± 0.034; E -0.036 ± 0.032; N -0.03 ± 0.044; R -0.058 ± 0.025; C -0.026 ± 0.037; G -0.091 ± 0.024; L -0.062 ± 0.028; I -0.079 ± 0.042; Y -0.066 ± 0.056; F -0.087 ± 0.045
Q61: L -0.003 ± 0.027; M -0.007 ± 0.034; Y -0.049 ± 0.04; P -0.463 ± 0.038; T -0.002 ± 0.033; D 0.003 ± 0.04; W -0.058 ± 0.03; F -0.031 ± 0.045; A -0.003 ± 0.028; E 0.052 ± 0.03; S -0.009 ± 0.027; C -0.003 ± 0.034; N -0.021 ± 0.043; R -0.002 ± 0.023; H -0.051 ± 0.041; I -0.029 ± 0.046; G 0.001 ± 0.024; V -0.035 ± 0.027
I70: N -0.142 ± 0.04; F 0.024 ± 0.045; K -0.03 ± 0.031; S -0.046 ± 0.028; R -0.013 ± 0.024; H -0.062 ± 0.042; A 0.062 ± 0.028; E 0.001 ± 0.03; W -0.02 ± 0.029; G -0.11 ± 0.025; P -0.259 ± 0.032; Q -0.019 ± 0.031; V 0.001 ± 0.027; Y -0.003 ± 0.04; C 0.004 ± 0.038
D68: F -0.052 ± 0.041; P -0.544 ± 0.037; T -0.034 ± 0.03; Q -0.058 ± 0.034; N -0.025 ± 0.033; E -0.023 ± 0.03; M -0.011 ± 0.032; R -0.019 ± 0.023; A 0.004 ± 0.026; K -0.001 ± 0.032; C -0.065 ± 0.035; I -0.093 ± 0.04; W -0.042 ± 0.032; L -0.064 ± 0.026; V -0.078 ± 0.026; S -0.012 ± 0.026; H -0.045 ± 0.043; G 0.014 ± 0.023
P57: H -0.12 ± 0.058; Q 0.033 ± 0.034; V -0.086 ± 0.029; D -0.097 ± 0.044; F 0.057 ± 0.051; S -0.027 ± 0.03; E -0.008 ± 0.031; R -0.021 ± 0.024; C -0.111 ± 0.049; N 0.001 ± 0.063; L -0.048 ± 0.029; G -0.025 ± 0.026; A -0.017 ± 0.028; W -0.104 ± 0.034; K -0.044 ± 0.04; I -0.088 ± 0.05; Y -0.049 ± 0.054
S62: W -0.059 ± 0.029; K 0.005 ± 0.033; H -0.01 ± 0.038; I -0.082 ± 0.053; N -0.005 ± 0.041; P -0.727 ± 0.041; T -0.005 ± 0.029; A -0.03 ± 0.026; Y -0.066 ± 0.041; G -0.01 ± 0.024; C 0.025 ± 0.038; Q -0.019 ± 0.031; V 0.012 ± 0.027; R -0.017 ± 0.023; E -0.004 ± 0.029; F -0.071 ± 0.04
L67: Y -0.815 ± 0.072; V -0.145 ± 0.026; D -0.412 ± 0.041; I 0.008 ± 0.04; S -0.648 ± 0.033; M -0.107 ± 0.035; N -0.501 ± 0.064; F -0.121 ± 0.038; G -0.583 ± 0.026; C -0.161 ± 0.034; K -0.653 ± 0.042; H -0.592 ± 0.06; R -0.777 ± 0.029; P -0.484 ± 0.039; T -0.534 ± 0.037; E -0.54 ± 0.03; Q -0.575 ± 0.045; W -0.94 ± 0.038
A63: W -1.31 ± 0.079; I -0.328 ± 0.043; C 0.024 ± 0.036; Y -1.05 ± 0.11; S -0.261 ± 0.029; L -0.41 ± 0.028; T -0.303 ± 0.032; V -0.246 ± 0.027; P -0.805 ± 0.046; N -0.91 ± 0.078; H -1.09 ± 0.089; D -0.633 ± 0.05; K -1.04 ± 0.069; E -0.815 ± 0.047; F -0.941 ± 0.093; G -0.069 ± 0.023
T54: N -0.069 ± 0.05; I -0.054 ± 0.043; A -0.081 ± 0.03; Y -0.046 ± 0.056; C -0.085 ± 0.045; L -0.087 ± 0.029; E -0.028 ± 0.033; H -0.056 ± 0.049; W -0.185 ± 0.031; G -0.282 ± 0.028; V -0.05 ± 0.028; P -1.23 ± 0.083; K 0.01 ± 0.036; Q -0.067 ± 0.043; S -0.027 ± 0.029; M 0 ± 0.038; D -0.191 ± 0.045; F -0.105 ± 0.048
E58: K -0.035 ± 0.034; Q 0.001 ± 0.036; C -0.17 ± 0.04; I -0.069 ± 0.043; G -0.05 ± 0.024; P -0.065 ± 0.034; R -0.08 ± 0.024; N -0.107 ± 0.049; T -0.038 ± 0.032; L -0.072 ± 0.027; D 0.03 ± 0.04; S -0.041 ± 0.029; Y -0.05 ± 0.043; H -0.052 ± 0.044; A -0.051 ± 0.029; V -0.075 ± 0.027; W -0.125 ± 0.029
L66: H -0.05 ± 0.039; R -0.053 ± 0.024; V -0.11 ± 0.026; W -0.123 ± 0.027; E -0.017 ± 0.028; N -0.108 ± 0.039; A -0.076 ± 0.029; C 0 ± 0.034; I -0.045 ± 0.039; S -0.029 ± 0.026; Y -0.079 ± 0.04; M -0.006 ± 0.033; F -0.087 ± 0.04; P -0.684 ± 0.04; D -0.127 ± 0.035
G55: K -1.05 ± 0.087; C -1.24 ± 0.15; A -0.534 ± 0.034; V -1.31 ± 0.077; E -1.12 ± 0.069; F -1.41 ± 0.21; H -0.721 ± 0.13; S -0.44 ± 0.037; D -0.936 ± 0.074; L -1.51 ± 0.12; I -1.12 ± 0.14; N -1.1 ± 0.16; P -1.13 ± 0.082; T -1.32 ± 0.12
R65: V -0.002 ± 0.026; L -0.024 ± 0.026; F 0.017 ± 0.039; N -0.008 ± 0.039; E -0.015 ± 0.031; Y -0.053 ± 0.039; C -0.029 ± 0.036; T -0.019 ± 0.032; G -0.027 ± 0.023; W -0.082 ± 0.028; D -0.043 ± 0.036; S -0.034 ± 0.027; Q -0.02 ± 0.031; P -0.464 ± 0.034; I -0.051 ± 0.038; K -0.006 ± 0.034; H -0.025 ± 0.036
M52: L 0 ± 0.028; Q -0.032 ± 0.039; A -0.056 ± 0.03; P -0.625 ± 0.046; R -0.017 ± 0.024; N -0.072 ± 0.052; G -0.137 ± 0.024; I -0.018 ± 0.05; V 0 ± 0.027; E -0.053 ± 0.031; S 0.001 ± 0.029; T -0.033 ± 0.037; Y -0.012 ± 0.053; C -0.004 ± 0.043; D -0.139 ± 0.039; W -0.011 ± 0.029; K -0.045 ± 0.034; H -0.025 ± 0.058
V60: N -0.109 ± 0.047; L -0.009 ± 0.03; H -0.525 ± 0.059; F -0.558 ± 0.069; D -0.768 ± 0.06; R -0.006 ± 0.025; K -0.223 ± 0.036; P -0.871 ± 0.075; T -0.13 ± 0.036; I 0.025 ± 0.045; A -0.307 ± 0.03; Q -0.174 ± 0.042; W -0.999 ± 0.056; Y -0.781 ± 0.07; E -0.855 ± 0.044; S -0.57 ± 0.037
